Data published in US20130095104A1 (OMEROS, published 2013).

T1: human Frizzled-10 (FZD10) (human, UniProt Q9ULW2 21-581)
T1 construct: no signal peptide limits are stated; also called FZ10; CD350
T1 sequence: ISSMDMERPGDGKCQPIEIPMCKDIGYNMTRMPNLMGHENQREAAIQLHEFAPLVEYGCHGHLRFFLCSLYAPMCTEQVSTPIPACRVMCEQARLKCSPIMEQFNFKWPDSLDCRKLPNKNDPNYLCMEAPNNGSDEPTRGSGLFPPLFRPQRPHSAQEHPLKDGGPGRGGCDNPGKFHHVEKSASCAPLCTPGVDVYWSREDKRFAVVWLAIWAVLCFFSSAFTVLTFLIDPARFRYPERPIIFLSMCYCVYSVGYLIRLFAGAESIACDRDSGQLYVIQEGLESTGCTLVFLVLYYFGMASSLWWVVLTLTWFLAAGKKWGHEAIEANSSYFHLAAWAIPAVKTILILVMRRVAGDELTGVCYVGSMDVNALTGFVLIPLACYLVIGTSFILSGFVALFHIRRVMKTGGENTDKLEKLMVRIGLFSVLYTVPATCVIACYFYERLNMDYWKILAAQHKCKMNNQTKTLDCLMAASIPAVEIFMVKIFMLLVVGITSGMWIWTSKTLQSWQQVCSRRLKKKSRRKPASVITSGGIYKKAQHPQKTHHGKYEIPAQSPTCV

B1: chimeric anti-FZD10 mAb B9L9.3 (antibody, V domains shown)
VH: AVTLDESGGGLQTPGGALSLVCKASGFTFSSFNMFWVRQEPGKGLEWVAGIDDDGSYPNYGSAVKGRATISRDNGQSTLRLQLNNLRAEDTGTYFCAKSGYGGSWGGYIADDIDAWGHGTEVIVSS
VL: ALTQPASVSANPGETVKITCSGDGSYAGSYYYGWYQQKAPGSAPVTLIYYNNKRPSDIPSRFSGSLSGSTNTLTITGVRADDEAVYFCGSADNSGAAFGAGTTLTVL
notes: also called Chimeric B9L9.3; progeny clone B9L9.3
B2: chimeric anti-FZD10 mAb B9L32.2 (antibody, human IgG1, V domains shown)
VH: B1 VH
VL: ALTQPASVSANPGETVKITCSGSDSSYAGSYYYGWYQQKAPGSAPVTLIYYNNKRPSDIPSRFSGSLSGSTNTLTITGVRADDEAVYFCGSADNSGAAFGAGTTLTVL
notes: also called progeny clone B9L32.2
B3: humanized B9L9.3 antibody (antibody, human IgG1, lambda, V domains shown)
VH: EVQLVESGGGLVQPGGSLRLSCAASGFTFSSFNMFWVRQAPGKGLEWVAGIDDDGSYPNYGSAVKGRATISRDNSKNTLYLQMNSLRAEDTAVYYCAKSGYGGSWGGYIADDIDAWGQGTLVTVSS
VL: ELTQPPSVSVSPGQTARITCSGDGSYAGSYYYGWYQQKPGQAPVTLIYYNNKRPSGIPERFSGSLSGSTNTLTISGVQAEDEADYYCGSADNSGAAFGGGTKLTVLG
notes: Mature humanized heavy chain with human IgG1 constant region and mature humanized light chain with human lambda constant region; also called hB9L9.3; humanized B9L9.3 mAb

Key:
[1] = target: T1, human Frizzled-10 (FZD10); test: saturation binding of recombinant antibody on SYO-1 cells (FZD10+), flow cytometry MFI against Ab (nM)
Experimental: Affinity was determined by measuring saturation binding kinetics of the recombinant antibodies on SYO-1 cells.

[2] = target: T1, human Frizzled-10 (FZD10); test: saturation binding of recombinant antibody on SYO-1 cells; Table 2 comparison with the humanized antibody
[3] = target: T1, human Frizzled-10 (FZD10); test: saturation binding on SYO-1 cells, flow cytometry; B9L9.3 on SYO-1 cells, Example 1 (FIG. 3)
Experimental: (§1) Recombinant antibodies were generated by cloning PCR-amplified V regions (Cummings et al., 2007 Supra) into a vector that supported expression of human IgG1 in 293F cells. Saturation binding kinetics were determined by either staining FZD10-specific DTLacO cells with various concentrations of fluorescent-labeled soluble antigen, or by staining FZD10-transfected cells or cancer cell lines intrinsically expressing FZD10 with various concentrations of the recombinant chimeric anti-FZD10 mAbs. To assay cell surface FZD10 binding, cells were stained with chimeric mAb clones B9A5 (parent), B9132.2 and B9L9.3 (progeny) or secondary antibody alone, all at concentrations ranging from […] to 800 nM, and analyzed by immunocytofluorimetry.

[4] = target: T1, human Frizzled-10 (FZD10); test: saturation binding on SYO-1 cells, flow cytometry; B9L32.2 on SYO-1 cells
Experimental: as §1

[5] = target: T1, human Frizzled-10 (FZD10); test: saturation binding of recombinant antibody on SYO-1 cells

Row | Binder | EC50 (read off the curve) [1] | Kd [2] | Kd [3] | Kd [4] | Kd [5]
1 | B1 | ~0.1 nM | 0.16 nM | 0.22 nM |  | 
2 | B2 |  |  |  | 40 nM | 
3 | B3 | ~0.2 nM |  |  |  | 0.22 nM
